Laboratory results taken from patent publication US20160194388A1 (WASHINGTON UNIVERSITY, published 2016).

Experiments:
[1] = molecular target: T1, human 14-3-3 epsilon isoform 1 (human, UniProt P62258 1-255); assay: flow cytometry on H23 cells
T1 construct: Endogenous protein of H23 human lung cancer cells; Mass spectrometry of the about 27 kDa band identified it as 14-3-3 epsilon, 255 amino acids; also called 14-3-3 protein epsilon; YWHAE
T1 sequence: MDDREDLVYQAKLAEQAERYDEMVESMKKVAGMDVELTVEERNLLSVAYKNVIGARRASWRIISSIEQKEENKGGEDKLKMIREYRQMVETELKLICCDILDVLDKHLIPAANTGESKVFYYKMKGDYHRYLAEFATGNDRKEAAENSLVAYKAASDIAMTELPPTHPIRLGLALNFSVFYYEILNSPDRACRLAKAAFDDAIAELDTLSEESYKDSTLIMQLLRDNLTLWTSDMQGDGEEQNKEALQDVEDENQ
Protocol: H23 cells were treated with radiation, 3Gy×3 or 0Gy sham. Cells were then treated with blocking buffer followed by the addition of the 7D4 anti-14-3-3 epsilon monoclonal antibody. Cells were then washed and stained with the secondary antibody conjugated to the fluorescent marker Alexa Fluor 488. Commercial rabbit anti-human 14-3-3 epsilon antibody was used as positive control. Negative controls included 7D4 without secondary antibody and normal mouse IgG with secondary antibody. Shown in FIG. 5 is the percentage of cells staining positive with the anti-14-3-3 antibodies as measured by flow cytometry (FACS).

[2] = molecular target: T2, peptide comprising amino acids 145-162 of 14-3-3 epsilon SV (human); assay: ELISA, peptide coated, 7D4 at 5 µg/ml
T2 construct: Synthetic 18-mer (Sigma), coated on the ELISA plate
T2 peptide: HPIRLGLALNFSVFYYEI
Protocol: (§1) Two batches of purified anti 14-3-3 epsilon monoclonal antibody 7D4 were used for testing all 31 peptides by ELISA. Three concentrations of each peptide had been used for coating ELISA plate at 30, 15, 10 μg/mL, 50 μl/each well were reacted against diluted purified antibodies at same concentration in all assay. Similar results were obtained for each peptide concentration coated on the ELISA plate.
(§2) Human 14-3-3 Protein epsilon and its isoform SV whole amino acid sequences were obtained through UniProtKB/Swiss-Prot. The Taxonomic identifier 9606 (NCBI) organism is Homosapiens (Human), Gene name is YWHAE. Peptide designed from whole sequences of 14-3-3 protein epsilon and its isoform 14-3-3 protein epsilon SV. The designed peptides contain 18AA from N terminal to C terminal and had 2AA overlapped in each peptide. A total of 31 peptides synthesized by Sigma. The synthesized peptide was prepared in DMSO and then further diluted in PBS for coating an ELISA plate. 30 μg/ml and 10 μg/ml of peptides in PBS were coated on ELISA plates, 50 μL/well. The plates incubated overnight at 4° C., were washed with 0.1% Tween20 PBS and blocked with 3% BSA in same buffer for 1 hour. […] After washing again, substrate ABTS was added to each well to monitor color change by reading at 405 nm in an ELISA reader (Bio-Tek Instrument Inc.). […]

[3] = molecular target: T3, peptide comprising amino acids 177-194 of 14-3-3 epsilon isoform 1 (human); assay: ELISA, peptide coated, 7D4 at 5 µg/ml
T3 construct: Synthetic 18-mer (Sigma), coated on the ELISA plate
T3 peptide: FSVFYYEILNSPDRACRL
Protocol: as §1, §2

[4] = molecular target: T1, human 14-3-3 epsilon isoform 1; assay: FMAT on H23 cells, hybridoma supernatant

fold increase in the percentage of cells staining positive after 3Gy×3 [1]: 20 fold
binding result [2]: binds
binding result [3]: binds
fold increase in binding on 3Gy×3 treated against sham 0Gy treated tumor cells [4]: 6 fold
B1: anti-14-3-3 epsilon mouse monoclonal antibody 7D4 (antibody, V domains shown)
VH: QVQLQQSGAELMKPGASVKISCKATGYTFSSYWIEWVKQRPGHGLEWIGEILPGSGSTNYNEKFKGKATFTADTSSNTAYMQLSSLTSEDSAVYYCARSVWLRRDFAYWGQGTLVTVSA
VL: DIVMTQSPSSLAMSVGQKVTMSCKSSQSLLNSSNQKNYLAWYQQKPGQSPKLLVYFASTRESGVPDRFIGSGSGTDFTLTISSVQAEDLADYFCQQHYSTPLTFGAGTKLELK
notes: also called McAb 7D4; 7D4 mAb
